The values below come from PMC9585320 (Frontiers in Molecular Biosciences, 2022).

In general, Kd refers to the constant that tells how readily two partners part at equilibrium. Low values mean a tighter complex, high ones a looser complex. For orientation: stoichiometry N means the number of molecules, sites or subunits per partner or assembly.

The target of series [1] is MazF3 toxin, (His)6MazF(FLAG)3 (Mycobacterium tuberculosis) (UniProt P9WIH8). The series can be described thus: MST.
For series [2], the target named is MazF9 toxin, (His)6MazF(FLAG)3 (Mycobacterium tuberculosis) (UniProt P71650). The series can be described thus: MST.
Series [3] deals with MazF6 toxin WT, purified (Mycobacterium tuberculosis) (UniProt P9WII2). The series can be described thus: SEC-MALS.
The target of series [4] is MazE9 antitoxin, full length, (His)6MazE(FLAG)3 (Mycobacterium tuberculosis) (UniProt P0CL61). The series can be described thus: SEC-MALS.
In series [5] the target is MazE3 antitoxin, full length, (His)6MazE(FLAG)3 (Mycobacterium tuberculosis) (UniProt O53451). The series can be described thus: SEC-MALS.
For series [6], the target named is MazF9 toxin, (His)6MazF(FLAG)3 (Mycobacterium tuberculosis) (UniProt P71650). The series can be described thus: SEC-MALS. In general terms: SEC sorts molecules by how far they enter the pores of the column.
Series [7] concerns the molecule itself. The series can be described thus: SEC-MALS.
The target of series [8] is MazE3 library. The series can be described thus: flow cytometry on cells. In general terms: A flow cytometer gives signals particle by particle.

Chain of MazF9 toxin, (His)6MazF(FLAG)3 (Mycobacterium tuberculosis) (P71650 whole entry): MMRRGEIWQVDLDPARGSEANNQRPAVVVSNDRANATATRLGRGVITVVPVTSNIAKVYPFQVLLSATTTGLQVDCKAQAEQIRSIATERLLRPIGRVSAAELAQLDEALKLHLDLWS

With “C-terminal MazE3 peptide (residues 72-106) (from UniProt O53451 72-106)”, the Kd in series [1] was 299 nM; in series [2], 200 nM. For “MazF6 toxin WT, purified (from UniProt P9WII2 1-114) (natural protein)”, the stoichiometry N in series [3] was determined as 2. Turning to “C-terminal MazE9 peptide (residues 43-76) (from UniProt P0CL61 43-76)”, the Kd in series [2] amounted to 5.7 nM. This counts as single-digit nanomolar.

For the molecule “MazE9 antitoxin, full length, (His)6MazE(FLAG)3 (from UniProt P0CL61 1-76) (natural protein)”, in series [2], the Kd worked out at 8.9 nM. This molecule also gave a stoichiometry N in series [4] of 2. The molecule “MazE3 antitoxin, full length, (His)6MazE(FLAG)3 (from UniProt O53451 1-106) (natural protein)” registered a stoichiometry N in series [5] of 2. “MazF9 toxin, (His)6MazF(FLAG)3 (from UniProt P71650 1-118) (natural protein)”: the stoichiometry N in series [6] amounted to 2.

B1: MazF3 toxin, (His)6MazF(FLAG)3 (natural protein)
chain: MRPIHIAQLDKARPVLILTREVVRPHLTNVTVAPITTTVRGLATEVPVDAVNGLNQPSVVSCDNTQTIPVCDLGRQIGYLLASQEPALAEAIGNAFDLDWVVA
On to B1, for which the “stoichiometry N” value in series [7] worked out at 2. For the same molecule, in series [8], the Kd was 1.7 nM.
